The record followed here is patent US20060287509A1 (University of California, published 2006).

The labels stand for the following.
B1: C6ML3-4 (scFv)
scFv: QVQLLQSGAELKKPGESLKISCKGSGYSFTSYWIAWVRQMPGKGLEYMGLIYPGDSDTKYSPSFQGQVTISVDKSVSTAYLQWSSLKPSDSAVYFCARHDVGYCSSSNCAKWPEYFQHWGQGTLVTVSSGGGGSGGGGSGGGGSQSVLTQPPSVSAAPGQKVTISCSGSSSNIGNNYVSWYQQLPGTAPKLLIYGHTNRPAGVPDRFSGSKSGTSASLAISGFRSEDEADYYCASWEYSLWGWVFGGGTKLTVLG
notes: C6.5 with this VL CDR3; C-terminal myc and His6 tags
B2: C6ML3-19 (scFv)
scFv: QVQLLQSGAELKKPGESLKISCKGSGYSFTSYWIAWVRQMPGKGLEYMGLIYPGDSDTKYSPSFQGQVTISVDKSVSTAYLQWSSLKPSDSAVYFCARHDVGYCSSSNCAKWPEYFQHWGQGTLVTVSSGGGGSGGGGSGGGGSQSVLTQPPSVSAAPGQKVTISCSGSSSNIGNNYVSWYQQLPGTAPKLLIYGHTNRPAGVPDRFSGSKSGTSASLAISGFRSEDEADYYCASWDRPLWGWVFGGGTKLTVLG
notes: as for B1
B3: C6ML3-2 (scFv)
scFv: QVQLLQSGAELKKPGESLKISCKGSGYSFTSYWIAWVRQMPGKGLEYMGLIYPGDSDTKYSPSFQGQVTISVDKSVSTAYLQWSSLKPSDSAVYFCARHDVGYCSSSNCAKWPEYFQHWGQGTLVTVSSGGGGSGGGGSGGGGSQSVLTQPPSVSAAPGQKVTISCSGSSSNIGNNYVSWYQQLPGTAPKLLIYGHTNRPAGVPDRFSGSKSGTSASLAISGFRSEDEADYYCAAWDHSLSGWVFGGGTKLTVLG
notes: as for B1
B4: C6ML3-15 (scFv)
scFv: QVQLLQSGAELKKPGESLKISCKGSGYSFTSYWIAWVRQMPGKGLEYMGLIYPGDSDTKYSPSFQGQVTISVDKSVSTAYLQWSSLKPSDSAVYFCARHDVGYCSSSNCAKWPEYFQHWGQGTLVTVSSGGGGSGGGGSGGGGSQSVLTQPPSVSAAPGQKVTISCSGSSSNIGNNYVSWYQQLPGTAPKLLIYGHTNRPAGVPDRFSGSKSGTSASLAISGFRSEDEADYYCAAWDRPLWGWVFGGGTKLTVLG
notes: as for B1
B5: C6ML3-29 (scFv)
scFv: QVQLLQSGAELKKPGESLKISCKGSGYSFTSYWIAWVRQMPGKGLEYMGLIYPGDSDTKYSPSFQGQVTISVDKSVSTAYLQWSSLKPSDSAVYFCARHDVGYCSSSNCAKWPEYFQHWGQGTLVTVSSGGGGSGGGGSGGGGSQSVLTQPPSVSAAPGQKVTISCSGSSSNIGNNYVSWYQQLPGTAPKLLIYGHTNRPAGVPDRFSGSKSGTSASLAISGFRSEDEADYYCAAWDGTLWGWVFGGGTKLTVLG
notes: as for B1
B6: C6ML3-3 (scFv)
scFv: QVQLLQSGAELKKPGESLKISCKGSGYSFTSYWIAWVRQMPGKGLEYMGLIYPGDSDTKYSPSFQGQVTISVDKSVSTAYLQWSSLKPSDSAVYFCARHDVGYCSSSNCAKWPEYFQHWGQGTLVTVSSGGGGSGGGGSGGGGSQSVLTQPPSVSAAPGQKVTISCSGSSSNIGNNYVSWYQQLPGTAPKLLIYGHTNRPAGVPDRFSGSKSGTSASLAISGFRSEDEADYYCATWDYALSGWVFGGGTKLTVLG
notes: as for B1
B7: C6ML3-10 (scFv)
scFv: QVQLLQSGAELKKPGESLKISCKGSGYSFTSYWIAWVRQMPGKGLEYMGLIYPGDSDTKYSPSFQGQVTISVDKSVSTAYLQWSSLKPSDSAVYFCARHDVGYCSSSNCAKWPEYFQHWGQGTLVTVSSGGGGSGGGGSGGGGSQSVLTQPPSVSAAPGQKVTISCSGSSSNIGNNYVSWYQQLPGTAPKLLIYGHTNRPAGVPDRFSGSKSGTSASLAISGFRSEDEADYYCAAWEDPWYGWVFGGGTKLTVLG
notes: as for B1
B8: C6ML3-13 (scFv)
scFv: QVQLLQSGAELKKPGESLKISCKGSGYSFTSYWIAWVRQMPGKGLEYMGLIYPGDSDTKYSPSFQGQVTISVDKSVSTAYLQWSSLKPSDSAVYFCARHDVGYCSSSNCAKWPEYFQHWGQGTLVTVSSGGGGSGGGGSGGGGSQSVLTQPPSVSAAPGQKVTISCSGSSSNIGNNYVSWYQQLPGTAPKLLIYGHTNRPAGVPDRFSGSKSGTSASLAISGFRSEDEADYYCAAWDATLWGWVFGGGTKLTVLG
notes: as for B1
B9: C6ML3-23 (scFv)
scFv: QVQLLQSGAELKKPGESLKISCKGSGYSFTSYWIAWVRQMPGKGLEYMGLIYPGDSDTKYSPSFQGQVTISVDKSVSTAYLQWSSLKPSDSAVYFCARHDVGYCSSSNCAKWPEYFQHWGQGTLVTVSSGGGGSGGGGSGGGGSQSVLTQPPSVSAAPGQKVTISCSGSSSNIGNNYVSWYQQLPGTAPKLLIYGHTNRPAGVPDRFSGSKSGTSASLAISGFRSEDEADYYCASWDHSLWGWVFGGGTKLTVLG
notes: as for B1
B10: C6ML3-1 (scFv)
scFv: QVQLLQSGAELKKPGESLKISCKGSGYSFTSYWIAWVRQMPGKGLEYMGLIYPGDSDTKYSPSFQGQVTISVDKSVSTAYLQWSSLKPSDSAVYFCARHDVGYCSSSNCAKWPEYFQHWGQGTLVTVSSGGGGSGGGGSGGGGSQSVLTQPPSVSAAPGQKVTISCSGSSSNIGNNYVSWYQQLPGTAPKLLIYGHTNRPAGVPDRFSGSKSGTSASLAISGFRSEDEADYYCAAWDYSLWGWVFGGGTKLTVLG
notes: as for B1
B11: C6ML3-11 (scFv)
scFv: QVQLLQSGAELKKPGESLKISCKGSGYSFTSYWIAWVRQMPGKGLEYMGLIYPGDSDTKYSPSFQGQVTISVDKSVSTAYLQWSSLKPSDSAVYFCARHDVGYCSSSNCAKWPEYFQHWGQGTLVTVSSGGGGSGGGGSGGGGSQSVLTQPPSVSAAPGQKVTISCSGSSSNIGNNYVSWYQQLPGTAPKLLIYGHTNRPAGVPDRFSGSKSGTSASLAISGFRSEDEADYYCAAWDYALWGWVFGGGTKLTVLG
notes: as for B1
B12: C6ML3-6 (scFv)
scFv: QVQLLQSGAELKKPGESLKISCKGSGYSFTSYWIAWVRQMPGKGLEYMGLIYPGDSDTKYSPSFQGQVTISVDKSVSTAYLQWSSLKPSDSAVYFCARHDVGYCSSSNCAKWPEYFQHWGQGTLVTVSSGGGGSGGGGSGGGGSQSVLTQPPSVSAAPGQKVTISCSGSSSNIGNNYVSWYQQLPGTAPKLLIYGHTNRPAGVPDRFSGSKSGTSASLAISGFRSEDEADYYCASWDYSLSGWVFGGGTKLTVLG
notes: as for B1
B13: C6ML3-8 (scFv)
scFv: QVQLLQSGAELKKPGESLKISCKGSGYSFTSYWIAWVRQMPGKGLEYMGLIYPGDSDTKYSPSFQGQVTISVDKSVSTAYLQWSSLKPSDSAVYFCARHDVGYCSSSNCAKWPEYFQHWGQGTLVTVSSGGGGSGGGGSGGGGSQSVLTQPPSVSAAPGQKVTISCSGSSSNIGNNYVSWYQQLPGTAPKLLIYGHTNRPAGVPDRFSGSKSGTSASLAISGFRSEDEADYYCAAWDHLRWGWVFGGGTKLTVLG
notes: as for B1
B14: C6ML3-12 (scFv)
scFv: QVQLLQSGAELKKPGESLKISCKGSGYSFTSYWIAWVRQMPGKGLEYMGLIYPGDSDTKYSPSFQGQVTISVDKSVSTAYLQWSSLKPSDSAVYFCARHDVGYCSSSNCAKWPEYFQHWGQGTLVTVSSGGGGSGGGGSGGGGSQSVLTQPPSVSAAPGQKVTISCSGSSSNIGNNYVSWYQQLPGTAPKLLIYGHTNRPAGVPDRFSGSKSGTSASLAISGFRSEDEADYYCAAWDYSRSGWVFGGGTKLTVLG
notes: as for B1
B15: C6ML3-14 (scFv)
scFv: QVQLLQSGAELKKPGESLKISCKGSGYSFTSYWIAWVRQMPGKGLEYMGLIYPGDSDTKYSPSFQGQVTISVDKSVSTAYLQWSSLKPSDSAVYFCARHDVGYCSSSNCAKWPEYFQHWGQGTLVTVSSGGGGSGGGGSGGGGSQSVLTQPPSVSAAPGQKVTISCSGSSSNIGNNYVSWYQQLPGTAPKLLIYGHTNRPAGVPDRFSGSKSGTSASLAISGFRSEDEADYYCAAWDDPLWGWVFGGGTKLTVLG
notes: as for B1
B16: C6-B1D6 (scFv)
scFv: QVQLLQSGAELKKPGESLKISCKGSGYSFTSYWIAWVRQMPGKGLEYMGLIYPGDSDTKYSPSFQGQVTISVDKSVSTAYLQWSSLKPSDSAVYFCARHDVGYCTDRTCAKWPEWMYPWGQGTLVTVSSGGGGSGGGGSGGGGSQSVLTQPPSVSAAPGQKVTISCSGSSSNIGNNYVSWYQQLPGTAPKLLIYGHTNRPAGVPDRFSGSKSGTSASLAISGFRSEDEADYYCASWDYTLSGWVFGGGTKLTVLG
notes: C6MH3-B1 with the library D residues of C6MH3-D6
B17: C6-B47D1 (scFv)
scFv: QVQLLQSGAELKKPGESLKISCKGSGYSFTSYWIAWVRQMPGKGLEYMGLIYPGDSDTKYSPSFQGQVTISVDKSVSTAYLQWSSLKPSDSAVYFCARHDVGYCTDRSCAKWPEWLHVWGQGTLVTVSSGGGGSGGGGSGGGGSQSVLTQPPSVSAAPGQKVTISCSGSSSNIGNNYVSWYQQLPGTAPKLLIYGHTNRPAGVPDRFSGSKSGTSASLAISGFRSEDEADYYCASWDYTLSGWVFGGGTKLTVLG
notes: C6MH3-B47 with the library D residues of C6MH3-D1
B18: C6-B47D2 (scFv)
scFv: QVQLLQSGAELKKPGESLKISCKGSGYSFTSYWIAWVRQMPGKGLEYMGLIYPGDSDTKYSPSFQGQVTISVDKSVSTAYLQWSSLKPSDSAVYFCARHDVGYCTDRSCAKWPEWLGVWGQGTLVTVSSGGGGSGGGGSGGGGSQSVLTQPPSVSAAPGQKVTISCSGSSSNIGNNYVSWYQQLPGTAPKLLIYGHTNRPAGVPDRFSGSKSGTSASLAISGFRSEDEADYYCASWDYTLSGWVFGGGTKLTVLG
notes: C6MH3-B47 with the library D residues of C6MH3-D2
B19: C6-B47D3 (scFv)
scFv: QVQLLQSGAELKKPGESLKISCKGSGYSFTSYWIAWVRQMPGKGLEYMGLIYPGDSDTKYSPSFQGQVTISVDKSVSTAYLQWSSLKPSDSAVYFCARHDVGYCTDRSCAKWPEWLDNWGQGTLVTVSSGGGGSGGGGSGGGGSQSVLTQPPSVSAAPGQKVTISCSGSSSNIGNNYVSWYQQLPGTAPKLLIYGHTNRPAGVPDRFSGSKSGTSASLAISGFRSEDEADYYCASWDYTLSGWVFGGGTKLTVLG
notes: C6MH3-B47 with the library D residues of C6MH3-D3

The term kon denotes a measure of how fast the partners come together. As usually defined, the koff is the rate constant with which the complex falls apart. The low end stands for a long-lived complex, the high end for a short-lived complex.

The first assay concerns the target T1, c-erbB-2 ECD with a Ser-Gly-His6 C-terminal fusion (UniProt P04626 23-652).
T1 construct: extracellular domain; expressed from CHO cells, IMAC purified; coupled to a CM5 chip, adsorbed to polystyrene, or biotinylated and captured on avidin; also called c-erbB-2 extracellular domain; biotinylated c-erbB-2 ECD
Put plainly: SPR (BIAcore).
For B1, the kon was found to be 400000 M⁻¹ s⁻¹.
As for B2, the on-rate (kon) stood at 670000 M⁻¹ s⁻¹. Compared with the last molecule, the kon is about 1.7-fold higher.
Take B3: the on-rate constant (kon) amounted to 710000 M⁻¹ s⁻¹.
With B4, the koff amounted to 0.0013 s⁻¹ and the on-rate (kon) was found to be 590000 M⁻¹ s⁻¹.
The molecule B5 showed a kon of 1.29e+06 M⁻¹ s⁻¹.
B6 displayed an on-rate constant (kon) of 460000 M⁻¹ s⁻¹.
As for B7, the kon is 610000 M⁻¹ s⁻¹.
On to B8, for which the kon was determined as 870000 M⁻¹ s⁻¹.
On the same count and under the same terms, for B9 the value was 670000 M⁻¹ s⁻¹.
Molecule B10 yielded a kon of 300000 M⁻¹ s⁻¹.
The molecule B11 came in with a kon of 610000 M⁻¹ s⁻¹.
B12 showed a kon of 590000 M⁻¹ s⁻¹.
B13: the kon was found to be 650000 M⁻¹ s⁻¹. This kon and that of the molecule before are within 1.5-fold of each other.
For B14, the kon came to 450000 M⁻¹ s⁻¹. The kon values of the last two molecules are within 1.5-fold of each other.
As to B15, the kon stood at 770000 M⁻¹ s⁻¹.

The target in the next assay is T1, c-erbB-2 ECD with a Ser-Gly-His6 …. Put plainly: from SPR (BIAcore) Kd values.
B16 registered a ΔΔGI of -0.16 kcal/mol.
In turn, B17 had a ΔΔGI of -0.11 kcal/mol.
The molecule B18 gave a ΔΔGI of 0.62 kcal/mol.
For B19, the ΔΔGI was 0.29 kcal/mol.
